Assays:
untagged YsaL (YE3555) [1] = experiment: SPR
untagged YsaL (YE3555) [2] = experiment: SPR; remark: listed apart in the source
untagged YsaL (YE3555) [3] = experiment: SPR; refolded YsaN
untagged YsaL (YE3555) [4] = experiment: SPR; remark: listed apart in the source

B1: YsaNΔ(1–5)-His (domain or fragment)
chain: SCAHPSRIHGCLLEAPLHGVFIGEICLIERDLCQPEVIAKAQVVGFKEGQTILSLIGRAQGLTREVVIRPTGQPFVFEMGEHLAGKIYNAAGEEVGVLSNATASSEPLFTTLCRVDNPPVSVNLRRPVTTPLVTGVRAIDGLLTCGQGQRMGIFAAAGSGKTSLMSMIMNHAVADICVIALIGERGREVTEFIHELQTSPRAAQTILVYATSDSPAVERCNAALLATAMAEYFRDQGKDVLLFVDSMTRYARALRDVALAAGELPARRGYPASVFEQLPLLLERPGALQHGSITAFYTVLLESEEESDPIGDEIRSIIDGHIYLSAQLAGRGHYPAIDILHSISRVFSKVTTPQHRQDAAKTRDMLGRLAQIQLYLDLGEYQRGENTDNDHALDNRDVIEGFLQQAMEEPGEFSTTLNQLRELAN
Kd (untagged YsaL (YE3555) [1]): 500000 nM

B2: YsaNΔ(411–430)-His (domain or fragment)
chain: MNLFDSCAHPSRIHGCLLEAPLHGVFIGEICLIERDLCQPEVIAKAQVVGFKEGQTILSLIGRAQGLTREVVIRPTGQPFVFEMGEHLAGKIYNAAGEEVGVLSNATASSEPLFTTLCRVDNPPVSVNLRRPVTTPLVTGVRAIDGLLTCGQGQRMGIFAAAGSGKTSLMSMIMNHAVADICVIALIGERGREVTEFIHELQTSPRAAQTILVYATSDSPAVERCNAALLATAMAEYFRDQGKDVLLFVDSMTRYARALRDVALAAGELPARRGYPASVFEQLPLLLERPGALQHGSITAFYTVLLESEEESDPIGDEIRSIIDGHIYLSAQLAGRGHYPAIDILHSISRVFSKVTTPQHRQDAAKTRDMLGRLAQIQLYLDLGEYQRGENTDNDHALDNRDVIEGFLQQ
Kd (untagged YsaL (YE3555) [2]): 260 nM

B3: YsaNflr-His (full length YsaN, refolded) (enzyme)
chain: MNLFDSCAHPSRIHGCLLEAPLHGVFIGEICLIERDLCQPEVIAKAQVVGFKEGQTILSLIGRAQGLTREVVIRPTGQPFVFEMGEHLAGKIYNAAGEEVGVLSNATASSEPLFTTLCRVDNPPVSVNLRRPVTTPLVTGVRAIDGLLTCGQGQRMGIFAAAGSGKTSLMSMIMNHAVADICVIALIGERGREVTEFIHELQTSPRAAQTILVYATSDSPAVERCNAALLATAMAEYFRDQGKDVLLFVDSMTRYARALRDVALAAGELPARRGYPASVFEQLPLLLERPGALQHGSITAFYTVLLESEEESDPIGDEIRSIIDGHIYLSAQLAGRGHYPAIDILHSISRVFSKVTTPQHRQDAAKTRDMLGRLAQIQLYLDLGEYQRGENTDNDHALDNRDVIEGFLQQAMEEPGEFSTTLNQLRELAN
Kd (untagged YsaL (YE3555) [3]): 42 nM

B4: YsaNΔ(426–430)-His (domain or fragment)
chain: MNLFDSCAHPSRIHGCLLEAPLHGVFIGEICLIERDLCQPEVIAKAQVVGFKEGQTILSLIGRAQGLTREVVIRPTGQPFVFEMGEHLAGKIYNAAGEEVGVLSNATASSEPLFTTLCRVDNPPVSVNLRRPVTTPLVTGVRAIDGLLTCGQGQRMGIFAAAGSGKTSLMSMIMNHAVADICVIALIGERGREVTEFIHELQTSPRAAQTILVYATSDSPAVERCNAALLATAMAEYFRDQGKDVLLFVDSMTRYARALRDVALAAGELPARRGYPASVFEQLPLLLERPGALQHGSITAFYTVLLESEEESDPIGDEIRSIIDGHIYLSAQLAGRGHYPAIDILHSISRVFSKVTTPQHRQDAAKTRDMLGRLAQIQLYLDLGEYQRGENTDNDHALDNRDVIEGFLQQAMEEPGEFSTTLNQL
Kd (untagged YsaL (YE3555) [4]): 114 nM

— PMC3790809 (2013)
